Assay results from publication doi:10.1101/2020.07.13.201541.

Legend:
Assay in all cases: SPR
[1] = target: HtsH3C-Myc-His (cytoplasmic fragment of HtsH3) (Lysobacter enzymogenes)
[2] = target: RpfG-MBP (Lysobacter enzymogenes)
[3] = target: HtsH2C-HA-His (cytoplasmic fragment of HtsH2) (Lysobacter enzymogenes)

HtsH1C-Flag-His (cytoplasmic fragment of HtsH1) (domain or fragment)
Kd [1]: 0.16 nM | Kd [2]: 0.0668 nM | Kd [3]: 0.0962 nM

HtsH2C-HA-His (cytoplasmic fragment of HtsH2) (domain or fragment)
Kd [1]: 0.178 nM | Kd [2]: 0.3 nM

HtsH3C-Myc-His (cytoplasmic fragment of HtsH3) (domain or fragment)
Kd [2]: 0.168 nM
